B1: endostatin: antiangiogenic fragment of a most C-terminal non-collagenous region of a collagen protein (SEQ ID NO: 1) (protein)
chain: HSHRDFQPVLHLVALNSPLSGGMRGIRGADFQCFQQARAVGLAGTFRAFLSSRLQDLYSIVRRADRAAVPIVNLKDELLFPSWEALFSGSEGPLKPGARIFSFDGKDVLRHPTWPQKSVWHGSDPNGRRLTESYCETWRTEAPSATGQASSLLGGRLLGQSAASCHHAYIVLCIENSFMTASK
B2: Alexa-labeled endostatin: endostatin labeled with Alexa dye, visualized under the fluorescent microscope (conjugate, UniProt P39060 1572-1754, looked up)
Endostatin: B1 chain
modifications: Endostatin Alexa dye label
notes: endostatin labeled with Alexa dye, visualized under the fluorescent microscope

Key:
HUVECs [1] = experiment: Localization of endostatin into cells and nuclei (cytosol/nuclei extract, immunoprecipitation, Western blot); assay type: cell-based, human; settings: 100 ug/ml recombinant endostatin, 30 minutes; FIG. 4
Experimental: 3 T-75 of HUVECs grown at regular growth condition (about 95% confluent) were treated with 100 ug/ml recombinant endostatin for 30 minutes and rinsed with warm 1XPBS and then trypsinized. The control cells from 3 T-75 were the HUVECs treated with the same concentration of endostatin for 1 second. The trypsinized cells were then washed with cold PBS twice. About 40 μl of cell pellet was obtained from all three T-75 flasks. The cytosol extract and nuclei extract was obtained using a nuclei extraction kit (Pierce Company, Rockford, Ill.). The rabbit polyclonal antibodies against human endostatin (Cytimmune Sciences, College Station, Md.) were used to immunoprecipite endostatin protein present in the extract. The immunoprecipited elution was analyzed on Western blot probed with either the same polyclonal antibodies or the mAb 96-2. […] (FIG. 4).

[2] = system: tumor induced angiogenesis; settings: systemic therapy; cited from earlier work
[3] = system: cultured endothelial cells; settings: cited from earlier work
Live HUVECs cells = experiment: Staining of live endothelial cells with Alexa-labeled endostatin (fluorescence microscopy); assay type: cell-based, human; settings: 8 ug/ml, 5, 15, 30 and 60 minutes; FIG. 6
Experimental: Live HUVECs cells were treated with 8 ug/mI Alexa-labeled endostatin for 5 minutes, 15 minutes, 30 minutes and 60 minutes, land washed with M-200 medium and fixed in 3.7% formaldehyde for 5 minutes and cold methanol for 5 minutes. Alexa-labeled endostatin can be visualized under the fluorescent microscope.

HUVECs [4] = experiment: Staining of fixed endothelial cells with Alexa-labeled endostatin; assay type: cell-based, human; settings: HUVECs grown at 5 ng/ml VEGF, 40 μg/μl, 30 mins, FIG. 7
Experimental: HUVECs grown at 5 ng/ml VEGF were fixed in 3.7% formaldehyde for 5 mins. and cold methanol for 5 mins. and then stained with […] Alexa-labeled endostatin for 30 mins.

Molecule	localization into cell and nuclei (HUVECs [1])	suppression of tumor induced angiogenesis [2]	inhibition of endothelial proliferation and angiogenesis [3]	staining of live cells (Live HUVECs cells)	staining of fixed cells (HUVECs [4])
B1	able to localize into HUVEC cell and nuclei	nearly complete suppression	potent and specific inhibitor		
B2				stains the cytosol and nuclei even as early as at the 5 minute time point	stained not only the cytoskeleton network, but also stained the nuclei
